Numbered stars: 1 amine (or outer) side, 2 acyl side, 3 side chain; on linkers, the order of the positions; unused ones are H or OH. Bridge positions count the residues as written; N and C are the ends. Square brackets hold non-standard residues; d marks the D form. Primed or numbered codes have the meaning given here. * marks the point of attachment. RbOHPhe4CONH2 = (2S,3R)-2-amino-3-(4-carbamoylphenyl)-3-hydroxypropanoic acid, NC(=O)c1ccc([C@@H](O[*:3])[C@H](N[*:1])C(=O)[*:2])cc1; bhcLeu = (1R,3S)-3-aminocyclopentane-1-carboxylic acid, O=C([C@@H]1CC[C@H](N[*:1])C1)[*:2]; Trp(βS-Me,7-OMe) = COc1cccc2c([C@H](C)[C@H](N)C(=O)O)c[nH]c12; dPro(trans-4-NMe2) = CN(C)[C@@H]1CN[C@@H](C(=O)O)C1; Trp(7-CN) = N#Cc1cccc2c(C[C@H](N)C(=O)O)c[nH]c12; Trp(7-Cl) = N[C@@H](Cc1c[nH]c2c(Cl)cccc12)C(=O)O; Biotin = O=C1N[C@H]2[C@H](CS[C@H]2CCCCC(=O)*)N1; Phe(4-CONH2) = NC(=O)c1ccc(C[C@H](N)C(=O)O)cc1; Phe(4-COOH) = N[C@@H](Cc1ccc(C(=O)O)cc1)C(=O)O; Trp(7-aza) = N[C@@H](Cc1c[nH]c2ncccc12)C(=O)O; Pip(4-aza) = O=C(O)[C@@H]1CNCCN1; 4Pal = N[C@@H](Cc1ccncc1)C(=O)O; NMeE = CN[C@@H](CCC(=O)O)C(=O)O; dHyp = O=C(O)[C@H]1C[C@H](O)CN1; 40Me3Pal = not defined here; Pipt5OH = not defined here; αMeS = C[C@](N)(CO)C(=O)O; Nle = CCCC[C@H](N)C(=O)O; Pip2c = not defined here; Ahp′ = not defined here; AEA = NCCOCC(=O)O; Sar = CNCC(=O)O
Columns and labels:
[1] = target: T1, TNFR1 on THP-1 Lucia NF-kB reporter cells (UniProt P19438 30-455, limits assumed); assay: cell-based or functional assay
T1 sequence (looked up): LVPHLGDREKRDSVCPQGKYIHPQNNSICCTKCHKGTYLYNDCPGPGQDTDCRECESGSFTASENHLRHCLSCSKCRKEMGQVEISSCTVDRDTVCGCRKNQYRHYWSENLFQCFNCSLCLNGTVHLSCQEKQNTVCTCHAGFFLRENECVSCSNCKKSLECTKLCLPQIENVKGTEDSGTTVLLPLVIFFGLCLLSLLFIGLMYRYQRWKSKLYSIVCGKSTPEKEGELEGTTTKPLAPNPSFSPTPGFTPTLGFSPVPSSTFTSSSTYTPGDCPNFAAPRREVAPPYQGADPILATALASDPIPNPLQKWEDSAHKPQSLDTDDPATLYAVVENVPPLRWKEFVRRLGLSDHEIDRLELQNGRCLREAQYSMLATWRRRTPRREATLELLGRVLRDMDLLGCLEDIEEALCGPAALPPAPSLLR

[2] = target: T2, TNFR1 on THP-1 Lucia NF-κB reporter cells (UniProt P19438 30-455, limits assumed); assay: cell-based or functional assay
T2 sequence (looked up): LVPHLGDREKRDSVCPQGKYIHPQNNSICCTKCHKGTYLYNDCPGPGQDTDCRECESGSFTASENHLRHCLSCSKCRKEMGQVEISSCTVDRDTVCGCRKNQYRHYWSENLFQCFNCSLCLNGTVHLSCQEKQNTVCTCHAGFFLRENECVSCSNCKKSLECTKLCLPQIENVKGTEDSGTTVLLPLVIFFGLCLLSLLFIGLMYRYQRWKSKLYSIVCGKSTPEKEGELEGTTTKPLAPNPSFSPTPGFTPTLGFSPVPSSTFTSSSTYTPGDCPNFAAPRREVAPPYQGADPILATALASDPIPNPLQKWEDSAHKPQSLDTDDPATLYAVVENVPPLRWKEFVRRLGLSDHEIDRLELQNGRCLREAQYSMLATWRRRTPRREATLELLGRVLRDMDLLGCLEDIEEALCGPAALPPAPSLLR

[3] = target: T3, C-terminally 6His-tagged human soluble TNFR1 (sTNFR1, residues 1-211), purified from a Sf21 baculovirus … (human); assay: TR-FRET binding assay, probe peptide with sTNFR1-6His (0.25 nM)
T3 construct: ID NO; The text says 'residues 1-211'; also called sTNFR1-6His; ID NO; P1
T3 chain: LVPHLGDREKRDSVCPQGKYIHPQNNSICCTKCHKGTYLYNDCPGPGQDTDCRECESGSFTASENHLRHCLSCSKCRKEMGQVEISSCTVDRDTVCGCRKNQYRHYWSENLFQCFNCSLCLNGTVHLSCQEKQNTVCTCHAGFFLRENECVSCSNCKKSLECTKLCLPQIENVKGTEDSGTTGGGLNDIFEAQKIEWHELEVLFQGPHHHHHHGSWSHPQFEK

B1: SEQ ID NO. 98 (peptide)
peptide: cyclo([bhcLeu][Ahp′][SbMe4Pal]HW[dHyp]N[Phe(4-COOH)][Trp(7-CN)][αMeS][Phe(4-CONH2)][Phe(4-CONH2)][Sar][Trp(βS-Me,7-OMe)])
modifications: reading uncertain; also: printed as cyclo(bhcLeu-Ahp-SbMe4Pal-H-W-dProt4OH-N-Phe4COOH-Trp7CN-aMeS-Phe4CONH2-Phe4CONH2-Sar-SbMeW7OMe)
[1]
  THP-1 IC50: 1.5 nM

B2: SEQ ID NO. 100 (peptide)
peptide: cyclo([bhcLeu][Nle][4Pal][Pip2c]W[NMeE]N[40Me3Pal][Trp(7-Cl)][αMeS][Phe(4-COOH)]Y[Sar][Trp(βS-Me,7-OMe)])
modifications: reading uncertain; also: printed as cyclo(bhcLeu-Nle-4Pal-Pip2c-W-NMeE-N-40Me3Pal-Trp7Cl-aMeS-Phe4COOH-Y-Sar-SbMeW7OMe)
[1]
  THP-1 IC50: 1.3 nM

B3: SEQ ID NO. 287 (Example No. 287) macrocyclic peptide (peptide)
peptide: cyclo([bhcLeu][Nle][4Pal][Pip(4-aza)][Trp(7-aza)][dPro(trans-4-NMe2)]N[Phe(4-COOH)][Trp(7-CN)][αMeS][Phe(4-COOH)][RbOHPhe4CONH2][Sar][Trp(βS-Me,7-OMe)])
SMILES: CCCC[C@@H]1NC(=O)[C@@H]2CC[C@@H](C2)NC(=O)[C@H]([C@@H](C)c2c[nH]c3c(OC)cccc23)NC(=O)CN(C)C(=O)[C@H]([C@H](O)c2ccc(C(N)=O)cc2)NC(=O)[C@H](Cc2ccc(C(=O)O)cc2)NC(=O)[C@](C)(CO)NC(=O)[C@H](Cc2c[nH]c3c(C#N)cccc23)NC(=O)[C@H](Cc2ccc(C(=O)O)cc2)NC(=O)[C@H](CC(N)=O)NC(=O)[C@H]2C[C@H](N(C)C)CN2C(=O)[C@H](Cc2c[nH]c3ncccc23)NC(=O)[C@@H]2CNCCN2C(=O)[C@H](Cc2ccncc2)NC1=O
[2]
  THP-1 IC50: 1.7 nM

B4: SEQ ID NO. 78 (peptide)
peptide: cyclo([bhcLeu][Nle][4Pal][Pipt5OH]W[dHyp][RbOHAsn][4Pal][Trp(7-CN)][αMeS][Phe(4-CONH2)][Phe(4-COOH)][Sar][Trp(βS-Me,7-OMe)])
modifications: reading uncertain; also: printed as cyclo(bhcLeu-Nle-4Pal-Pipt5OH-W-dProt4OH-RbOHAsn-4Pal-Trp7CN-aMeS-Phe4CONH2-Phe4COOH-Sar-SbMeW7OMe)
[1]
  THP-1 IC50: 0.7 nM

B5: biotinylated peptide SEQ ID NO. 1 (TR-FRET probe): cyclo(ClAc-F-Y-S-W-Sar-N-Y-W-S-Y-Y-Sar-W-C)-G-Aea-K(N-Biotin)-NH2 (peptide)
peptide: {CH2CO}-FYSW[Sar]NYWSYY[Sar]WCG[AEA]K(Biotin)-NH2
modifications: thioether N-14
SMILES: CN1CC(=O)N[C@@H](CC(N)=O)C(=O)N[C@@H](Cc2ccc(O)cc2)C(=O)N[C@@H](Cc2c[nH]c3ccccc23)C(=O)N[C@@H](CO)C(=O)N[C@@H](Cc2ccc(O)cc2)C(=O)N[C@@H](Cc2ccc(O)cc2)C(=O)N(C)CC(=O)N[C@@H](Cc2c[nH]c3ccccc23)C(=O)N[C@H](C(=O)NCC(=O)NCCOCC(=O)N[C@@H](CCCCNC(=O)CCCC[C@@H]2SC[C@@H]3NC(=O)N[C@@H]32)C(N)=O)CSCC(=O)N[C@@H](Cc2ccccc2)C(=O)N[C@@H](Cc2ccc(O)cc2)C(=O)N[C@@H](CO)C(=O)N[C@@H](Cc2c[nH]c3ccccc23)C1=O
notes: Synthetic thioether macrocycle made by Procedure A, with a Gly-Aea spacer and Lys(biotin) on the carboxy group of the C-terminal cysteine; also called biotin-tagged B0372 peptide
[3]
  Kd: ~100 nM

B6: SEQ ID NO. 88 (peptide)
peptide: cyclo([bhcLeu][Nle][4Pal][Pipt5OH]W[dHyp]N[AlaPyrim4COOH][Trp(7-Cl)][αMeS][Phe(4-CONH2)][Phe(4-COOH)][Sar][Trp(βS-Me,7-OMe)])
modifications: reading uncertain; also: printed as cyclo(bhcLeu-Nle-4Pal-Pipt5OH-W-dProt4OH-N-AlaPyrim4COOH-Trp7Cl-aMeS-Phe4CONH2-Phe4COOH-Sar-SbMeW7OMe)
[1]
  THP-1 IC50: 1.9 nM
